Source: the supplement of paper PMC10724198
± gives the standard deviation of the averaged measurements.

tested on: Saccharomyces cerevisiae; experiment: protein stability index of tFT-peptide fusion (C-terminal peptide) (PSI (0-1 scale)); higher = more stable (slower turnover); details: genetic background: wild type; temperature: 30 C
Method: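 Multiplexed protein stability (MPS) profiling in S. cerevisiae. Random 12-aa peptides (tFT-X12 library) are fused to the C-terminus of a sfGFP-mCherry tandem fluorescent timer, after mCherry and a GGGS linker. Cells are FACS-sorted into 8 mCherry/sfGFP bins and deep-sequenced. The protein stability index (PSI) is the read-weighted bin average, scaled from 0 (unstable) to 1 (stable). Only peptides with >10 reads are reported; cells were grown at 30 °C in SC-His with glucose.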
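Also: PSI is a weighted mean of sequencing reads over stability bins, variants kept only with over 10 reads, mCherry proximal and sfGFP distal, peptide attached via GGGS linker.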

In order of rising protein stability index:
1. EGVWIVMFCGLL  0.504 ± 0.11
2. DIEFGLSTVVCH  0.5099 ± 0.0046
3. DTSNRRFAYRRS  0.533 ± 0.12
4. DTDRRWLGTFLV  0.534 ± 0.023
5. DCCAHLRARRLT  0.539 ± 0.035
6. EQICNCKIIMVE  0.5669 ± 0.003
7. DRDRVLLRGYRH  0.57134 ± 0.00013
8. DRLSSPYTLFCY  0.571 ± 0.037
9. EILGFVFGFFFL  0.5711 ± 0.0016
10. EMGGLKACWGVG  0.572 ± 0.022
11. EEVVAQYCITLS  0.5864 ± 0.0021
12. EPASLTVFEGTS  0.587 ± 0.022
13. ELKVVVTPLVPS  0.588 ± 0.053
14. EESAHPCRREVR  0.58988 ± 3.9e-05
15. EGGERGSKIVDT  0.593 ± 0.029
16. DFCSVDLNLCIV  0.61 ± 0.011
17. DETIAALYTMTD  0.615 ± 0.014
18. DSTVGRTLRTRR  0.617 ± 0.068
19. DNVVLVRQAAFI  0.618 ± 0.066
20. DEVGVGASSNVF  0.619 ± 0.037
21. DKRPTLYSLSLS  0.621 ± 0.032
22. DRTQKIQNNKWM  0.622 ± 0.014
23. EPPGWGRGTAQG  0.623 ± 0.07
24. ENKGKKITITNE  0.625 ± 0.018
25. DSILCVPCVYLY  0.629 ± 0.0084
26. DGVAILPLVRIS  0.63 ± 0.031
27. DPVGRSSHQFFL  0.633 ± 0.026
28. EESKEKKKNEEE  0.63584 ± 4.9e-05
29. DGGTSGGGVPVP  0.637 ± 0.054
30. DQIWHPATRIMC  0.638 ± 0.071
31. EGRTQTLPSRVT  0.638 ± 0.05
32. EEQKAKQKQEYG  0.639 ± 0.077
33. DCFSLVLRFTPV  0.64 ± 0.034
34. DKIYNRNSKRRI  0.6418 ± 0.0055
35. EGPEGRDVVRRY  0.644 ± 0.0096
36. DFGVRLGGPRTL  0.645 ± 0.017
37. DSGLVSRNLFLH  0.645 ± 0.18
38. DARALMGEGGSV  0.651 ± 0.016
39. EALVVLGVGFFG  0.651 ± 0.021
40. DKMLDIETNNKH  0.654 ± 0.033
41. EQVTCGGIRVGQ  0.656 ± 0.086
42. DPCDVVQHPSAQ  0.657 ± 0.11
43. EACVAAMTPKSL  0.657 ± 0.0083
44. ECGLGGWGGLGV  0.657 ± 0.078
45. DGRGPVSPTSLR  0.662 ± 0.036
46. ECIKVRGQWREI  0.662 ± 0.011
47. DLRSQGWVALFH  0.663 ± 0.04
48. EERVEYHVALEV  0.664 ± 0.024
49. DVLGLSSRPFRV  0.665 ± 0.015
50. EFLGRVPNTQDG  0.668 ± 0.078
51. DTTTQPMSYEDP  0.669 ± 0.22
52. EARLGVGRCGTG  0.67 ± 0.0098
53. DLYLETSCSIGG  0.6723 ± 0.0032
54. EGRRAVGRGRGR  0.672 ± 0.05
55. EMPQNSKKNQAA  0.672 ± 0.06
56. EADRAPSGGAGN  0.673 ± 0.013
57. EAGVGSGGGRCG  0.673 ± 0.058
58. DQIDGPCNSRTR  0.674 ± 0.023
59. ENPIASQWVRRY  0.6737 ± 0.0039
60. DAWSFHNGATGA  0.676 ± 0.029
61. DRGSSRFTIGPK  0.676 ± 0.022
62. DTYSEQRIVVTK  0.677 ± 0.012
63. DVLSSVRGLTLL  0.678 ± 0.0082
64. DPPLPLSPLTHR  0.679 ± 0.05
65. EKVGVTVLLRHV  0.679 ± 0.038
66. EDCAGIFCQSVK  0.68 ± 0.015
67. EGAGSAPCMVQG  0.68 ± 0.026
68. DGQSAKEPVGFR  0.681 ± 0.037
69. DLSCVPSVNLGM  0.682 ± 0.075
70. DPWPPPRTRTRT  0.682 ± 0.015
71. EKEGPDRGECGL  0.682 ± 0.0089
72. EKKKEKKGKKRE  0.683 ± 0.029
73. DGKLNTASIEKV  0.684 ± 0.036
74. EIKNKENKLKKT  0.684 ± 0.03
75. EKLVAERGMYAT  0.684 ± 0.041
76. DLRGDYCAGARV  0.685 ± 0.028
77. DRLGQYSLIQRG  0.687 ± 0.022
78. DARRAKPTRRNA  0.688 ± 0.059
79. DLYQRPPLPKFS  0.688 ± 0.036
80. ELKKKYNEKKRI  0.6885 ± 0.002
81. DDSHVLILKFNW  0.691 ± 0.045
82. DVHNCSLQAAKK  0.691 ± 0.012
83. EGDGAVGKTRGD  0.691 ± 0.042
84. ELGSIYDGWARA  0.691 ± 0.011
85. ELKGRQLGSNLK  0.691 ± 0.045
86. EKKEKKETTDTE  0.693 ± 0.023
87. EALTLLGAFYLP  0.694 ± 0.025
88. EAVVWGTLLCGG  0.694 ± 0.01
89. DNKDRFRMFRVG  0.695 ± 0.095
90. EKTKEHRNDSQR  0.695 ± 0.014
91. EGGILHKKFTKS  0.696 ± 0.025
92. EGKNEFINGTTT  0.696 ± 0.023
93. DCRATNTTWGLS  0.697 ± 0.18
94. DTRRHSFCSGTG  0.697 ± 0.029
95. DARKTKNRKDTA  0.699 ± 0.024
96. DGAVRRGVGGLG  0.699 ± 0.031
97. DLMLSVDLNIDG  0.699 ± 0.0084
98. EEKASKSSRLKK  0.699 ± 0.036
99. ELGLGGCGGLGV  0.7 ± 0.03
100. DGWKERDSGVVG  0.701 ± 0.018
101. EAGAKEWGAKQT  0.7006 ± 0.007
102. DRSRATRSPHIN  0.703 ± 0.023
103. ENQGEKKKKKKR  0.703 ± 0.022
104. DLGSFVNSGWVT  0.706 ± 0.044
105. DCVFLPCPRFFL  0.707 ± 0.03
106. DVLCALYFGRSK  0.707 ± 0.045
107. DIYGYENNIIKN  0.708 ± 0.013
108. EGGKGGLVIVGG  0.709 ± 0.11
109. DQEENKRTNGTR  0.7096 ± 0.0034
110. DTLPSYPVHCRP  0.71 ± 0.014
111. EIVTTEINKKTN  0.7115 ± 0.004
112. DVVWRVVNDSDL  0.712 ± 0.051
113. EGKPALANSTVR  0.712 ± 0.052
114. EEGGTRGASAVV  0.7134 ± 0.0024
115. DSGYRQWGGTGR  0.714 ± 0.12
116. ELGGRGPGGWVG  0.7149 ± 0.0041
117. ENRERVVENLRD  0.715 ± 0.04
118. ENRGSGLQACGA  0.716 ± 0.1
119. CYLKGSGSWISG  0.718 ± 0.031
120. ECAGVVRAKLPA  0.718 ± 0.05
121. DSSCLVWYRCGC  0.719 ± 0.083
122. CYPPTRYILGYF  0.72 ± 0.06
123. DHLTGTPPSPTV  0.72 ± 0.048
124. EKSEKSRGNRYV  0.72 ± 0.076
125. DLYPSVWVSIGP  0.721 ± 0.019
126. DSDIIDYKMEII  0.722 ± 0.12
127. EGEDRVEPGTQT  0.722 ± 0.045
128. EGGWRLVWGRGG  0.7222 ± 0.0024
129. DERESLFPLCSG  0.725 ± 0.015
130. EIRPRPYLCERF  0.7253 ± 0.0064
131. EMRAGNWWGREG  0.728 ± 0.054
132. DPSQRRPDCCTY  0.729 ± 0.039
133. EGLCFLICKERS  0.729 ± 0.025
134. DSTGFRQNGQTD  0.73 ± 0.015
135. DGCVTVDIRRGV  0.733 ± 0.016
136. DKSGVYYMYSFK  0.733 ± 0.059
137. DMSVVCDRVLFD  0.733 ± 0.034
138. ELGARGGRGGGR  0.739 ± 0.038
139. EPPQPPSLPPLF  0.739 ± 0.0085
140. EIAGKGFRLGEW  0.74 ± 0.052
141. EKRDRKKNPRGS  0.744 ± 0.1
142. DYLGGGARSEVD  0.745 ± 0.029
143. EKQKIIRSGCES  0.746 ± 0.16
144. EDVPRGWACRGR  0.747 ± 0.024
145. EKGRERREGGRK  0.749 ± 0.044
146. DRHWLELVGLWS  0.75 ± 0.049
147. DRSQKINKKKKK  0.75 ± 0.017
148. DRRKRMLLLEHP  0.76 ± 0.054
149. EQFQLCAREVAK  0.761 ± 0.047
150. DSVGVLVPRGFR  0.766 ± 0.045
151. EISKKKKQTKRK  0.768 ± 0.12
152. DQSLHAWSLRCT  0.771 ± 0.011
153. DSTLCSCSLHTS  0.777 ± 0.12
154. EECSYERRRTRE  0.8059 ± 0.0017
155. DSRTLDQNRAKF  0.824 ± 0.032
